Patent US11065317B2, “Heat shock protein-binding peptide compositions and methods of use thereof” (Agenus Inc., priority 2018, dated 2021)

Key:
[1] = target: T1, human Hsc70 (Homo sapiens, UniProt P11142); test: Percent complexation of peptides with Hsc70 by size exclusion chromatography; format: binding; conditions: 60 minutes at 30° C., SEC, 214 nm; for Percent complexation of peptides with Hsc70, 0.25:1: peptide:Hsc70 molar ratio 0.25:1; for Percent complexation of peptides with Hsc70, 0.5:1: peptide:Hsc70 molar ratio 0.5:1; for Percent complexation of peptides with Hsc70, 1:1: peptide:Hsc70 molar ratio 1:1; for Percent complexation of peptides with Hsc70, 2:1: peptide:Hsc70 molar ratio 2:1; for Percent complexation of peptides with Hsc70, 4:1: peptide:Hsc70 molar ratio 4:1
T1 construct: made in house; host or cells: E. coli
Description: In a separate experiment, further variants of the peptide NLLRLTG (SEQ ID NO: 70) were generated and the ability of these peptides to form a peptide-Hsc70 complex was analyzed. Peptides were again synthesized using standard Fmoc solid-phase chemical synthesis, as described above. Individual peptides were solubilized in pH adjusted water at a concentration of 250 μM, and spiked with polysorbate 20 to a final concentration of 0.1%. To form a peptide-Hsc70 complex, Hsc70 (1 mg/ml, 0.1% polysorbate) was mixed with peptide at peptide:Hsc70 molar ratios of, 0.25:1, 0.5:1, 1:1, 2:1, and 4:1, for 60 minutes at 30° C. Following incubation, samples were cooled for 5 minutes at room temperature and transferred to HPLC vials for analysis. To evaluate the quantity of the complex in the solution, 20 μl (10 μg) of the sample was loaded on a size exclusion chromatography column TSKgel SuperSW3000 (Tosoh Bioscience) at a flow rate of 0.2 ml/min with 1×PBS as a running buffer. The data was collected by measuring the absorbance at 214 nm.
The percent of Hsc70 bound to peptide was calculated by SEC. As shown in the SEC chromatogram depicted in FIG. 1, recombinant human heat shock cognate 71 kDa protein (Hsc70) appeared as monomer (M), dimer (D), trimer (T), and higher order high molecular weight (HMW) oligomeric species when subjected to SEC chromatography. Resolution and evaluation of the extent to which peptide-Hsc70 complex was formed with a given peptide or peptide mixture was complicated by the close elution of a complex of Hsc70 monomer with peptide (Msh). The peaks corresponding to monomer and complex overlap and were not fully resolved by conventional SEC media. In order to more accurately calculate the extent of complex formation, the following data analytical method was used. […] Peak area integrations of these protein species were well resolved from the complex and monomer. Further, the extent to which complex was formed appeared to be […] to the extent to which trimer and dimer were recruited to complex formation. Because of this observation, changes in trimer and dimer reflected the extent to which monomer was recruited to the formation of complex. Thus, the progression of changes in the level of trimer and dimer was used to calculate expected changes in the peak areas of overlapping complex and monomer species, and these calculated peak areas were used to calculate net formation of complex.
Terms used for various chromatographic fractions include: High Molecular Weight (HMW), Trimer and other mid-order oligomer (T), Dimer (D), Complex (C), Monomer shoulder (Msh), and Monomer (M) (see FIG. 1). Peak areas of the various fractions were extracted from SEC data and the percentage of peptide-Hsc70 complex formation was calculated using the following set of equations: % Complex=(AREAcomplex/AREATotal)×100 AREAcomplex=AREATotal−(AreaT+D+AreaMshx+AreaMx) AREATotal=AREAT+D,C,Msh,M+(AREAHDw-x−AREAHDW-0) AREAMshx=AREAMsh0×(AREA(T+D)x)/(AREA(T+D)0) AREAMx=AREAM0×(AREA(T+D)x)/(AREA(T+D)0)
AREATotal is the sum of total integrated peak areas from trimer/oligomer region through the monomer peak and excludes the initial HMW peak area but includes the excess increase of the HMW peak area that was observed when peptide was added. The HMW peak was excluded from the complexation calculation on the basis that it was aggregated protein that was not functional for complexation. This correction took into account AreaTotal factors in the minor increase in HMW area, adding it back to base total area used to calculate area of complex.
The foregoing method was applied to the SEC chromatogram for each complexation reaction by applying vertical lines to the chromatogram to produce HMW, T, C, D, and M segments (as shown in FIG. 1), calculating the area under the curve for of each of the indicated HMW, T, C, D, and M segments, and inputting the values into the equations described above.

[2] = target: T2, Recombinant human Hsc70 (rhHsc70) (Homo sapiens, UniProt P11142); test: Complexation of rhHsc70 with PEP006 or a PEP006-containing polypeptide, size exclusion HPLC chromatogram; format: binding
T2 construct: made in house; host or cells: E. coli
Description: Briefly, PEP006 peptide was reconstituted in water for injection (WFI) to a concentration of 645 μM. Recombinant human Hsc70 (rhHsc70) was diluted at a concentration of 1.66 mg/mL. Both solutions were pre-warmed in a 37° C. incubator for 10 minutes, and were combined and incubated at 37° C. for 60 minutes. The final concentration of rhHsc70 was 1 mg/mL (about 14.1 μM), and the molar ratio of PEP006 to rhHsc70 was 0.25:1, 0.5:1, 1:1, 1.5:1, 2:1, 2.5:1, and 3:1. A negative control containing only rhHsc70 at 1 mg/mL was also prepared.
A quantity of 10 μg of each sample was injected neat in triplicate for resolution by size exclusion HPLC (Alliance HPLC, Waters Model #2695 Separations Module; Dual Wavelength UV Detector, Waters Model 2487) using a chromatography column TSKgel SuperSW3000 (Tosoh Bioscience, Catalog #18675). […] UV absorbance of PEP006 peptide and rhHsc70 protein was measured at the wavelengths of 214 nm and 280 nm. The absorbance data was processed by Waters Empower (V2) software. […]
FIG. 3B is a graph showing percent complexation of a polypeptide comprising PEP006 with HSC70 over a range of polypeptide:Hsc70 molar ratios from 0.125:1 to 4:1, as calculated from size exclusion chromatography traces similar to those in FIG. 3A, using the methods described Example 6.1.1. […]

T1 sequence (P11142 whole entry): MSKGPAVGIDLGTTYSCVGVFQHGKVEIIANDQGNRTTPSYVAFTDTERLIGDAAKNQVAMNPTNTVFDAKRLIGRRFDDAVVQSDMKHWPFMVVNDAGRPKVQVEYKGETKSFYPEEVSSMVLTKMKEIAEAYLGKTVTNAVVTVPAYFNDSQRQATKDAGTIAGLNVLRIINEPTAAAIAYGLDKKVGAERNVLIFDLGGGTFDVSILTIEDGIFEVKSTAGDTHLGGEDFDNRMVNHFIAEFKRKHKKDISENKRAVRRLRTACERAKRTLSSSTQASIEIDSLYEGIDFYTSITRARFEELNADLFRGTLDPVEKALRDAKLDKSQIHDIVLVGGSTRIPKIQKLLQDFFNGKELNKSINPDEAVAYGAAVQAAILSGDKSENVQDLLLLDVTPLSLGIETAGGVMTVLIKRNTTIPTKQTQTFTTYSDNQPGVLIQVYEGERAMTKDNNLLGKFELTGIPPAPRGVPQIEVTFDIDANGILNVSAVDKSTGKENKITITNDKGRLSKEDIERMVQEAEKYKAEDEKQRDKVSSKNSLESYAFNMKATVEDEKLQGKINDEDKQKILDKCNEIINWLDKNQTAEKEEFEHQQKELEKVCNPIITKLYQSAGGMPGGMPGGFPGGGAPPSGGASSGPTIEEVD
T2 sequence (P11142 whole entry): as above

Sequence | Percent complexation of peptides with Hsc70, 0.25:1 [1] | Percent complexation of peptides with Hsc70, 0.5:1 [1] | Percent complexation of peptides with Hsc70, 1:1 [1] | Percent complexation of peptides with Hsc70, 2:1 [1] | Percent complexation of peptides with Hsc70, 4:1 [1] | column retention time of complexation products when rhHsc70 bound ([2]; PEP006:rhHsc70 molar ratios 0.25:1 to 3:1, 37° C. 60 minutes, FIG. 2) | column retention time of complexation products when rhHsc70 bound ([2]; polypeptide:Hsc70 molar ratios 0.125:1 to 4:1, FIG. 3A)
FFRKFWLRLTW [PEP008] | 24.4% | 38.3% | 61.8% | 79.1% | 81.6% |  | 
FFRKNFLRLTF [PEP027] | 19.1% | 49.0% | 77.0% | 85.6% | 90.0% |  | 
FFRKNLLRLTG [PEP001, reference compound] | 23.4% | 44.7% | 68.1% | 82.5% | 90.1% |  | 
FFRKNLLRLTW [PEP155] | 22.5% | 48.1% | 75.6% | 82.9% | 86.6% |  | 
FFRKNLLRWTG [PEP004] | 15.4% | 29.0% | 46.8% | 62.5% | 75.3% |  | 
FFRKNRLLLTG [PEP002] | 19.2% | 32.0% | 48.7% | 64.8% | 78.8% |  | 
FFRKNRLWLTG [PEP005] | 16.0% | 32.7% | 54.8% | 67.6% | 77.6% |  | 
FFRKNWIRITW [PEP013] | 25.6% | 48.3% | 69.6% | 81.9% | 87.7% |  | 
FFRKNWLKLKW [PEP055] | 24.1% | 52.2% | 75.9% | 83.7% | 86.3% |  | 
FFRKNWLKLRW [PEP057] | 24.9% | 50.0% | 72.2% | 82.8% | 88.3% |  | 
FFRKNWLKLTW [PEP012] | 29.9% | 58.2% | 79.2% | 86.2% | 89.5% |  | 
FFRKNWLKLWK [PEP058] | 22.7% | 43.5% | 66.5% | 78.8% | 83.9% |  | 
FFRKNWLLLTW [PEP003] | 26.8% | 45.6% | 67.2% | 81.3% | 87.6% |  | 
FFRKNWLRLFW [PEP010] | 19.1% | 42.2% | 64.9% | 79.3% | 86.5% |  | 
FFRKNWLRLKW [PEP011] | 31.2% | 58.2% | 81.6% | 87.8% | 90.4% |  | 
FFRKNWLRLLW [PEP009] | 32.8% | 63.5% | 81.0% | 85.3% | 89.0% |  | 
FFRKNWLRLTW [PEP006] | 25.4% | 53.4% | 81.5% | 88.3% | 91.8% | column retention time became shorter | 
FFRKQWLRLTW [PEP014] | 29.3% | 54.4% | 80.9% | 88.1% | 90.3% |  | 
FRNWLRLTW [PEP028] | 24.0% | 46.4% | 75.6% | 84.1% | 87.5% |  | 
LGVVRPRALHRELDLVDDSPTPGSPGSFFRKNWLRLTW [polypeptide comprising PEP006] |  |  |  |  |  |  | column retention time became shorter
